Here are results for 1 substance from US20070292907.

The subject of this data set is bovine 19S complex (PA700).

Consider “USP14-ΔUBL (91-494) (purified recombinant, activation assay)”, for which the “activity toward UbVS (anti-ubiquitin immunoblot)” value was “showed extremely low activity toward UbYS, both in the absence and presence of the 19S regulatory particle”.
